In test [1] the target is T1, SOC1 (SUPPRESSOR OF OVEREXPRESSOR OF CONSTANS 1) transcription factor (Arabidopsis thaliana, UniProt O64645 1-214, 35S-Met label in the pull-down assay (in vitro translated)).
T1 construct: Full-size MADS box transcription factor; In yeast two-hybrid it was fused to GAL4 AD or BD (pGADT7/pGBKT7); In BiFC it was fused to a half of EYFP; In the pull-down it was in vitro translated from pGADT7 and 35S-labeled; also called Arabidopsis SOC1; At2g45660
Kind of test: BiFC (split EYFP fusions) in Arabidopsis protoplasts. The method, then: (§1) BiFC assays were carried out as described previously (Hong et al., J. Biol. Chem. 286, 1659-1668, 2011). A full-size SOC1 gene was fused in-frame to the 5′ end of a gene sequence encoding the C-terminal half of EYFP in the pSATN-cEYFP-C1 vector (E3082). Truncated SOC1 gene sequences were fused in-frame to the 5′ end of a gene sequence encoding the N-terminal half of EYFP in the pSATN-nEYFP-C1 vector (E3081). The expression constructs were cotransformed into Arabidopsis protoplasts. Expression of the fusion constructs was monitored by fluorescence microscopy using a Zeiss LSM510 confocal microscope (Carl Zeiss MicroImaging GmbH, Jena, Germany). The BdSOC1 gene constructs were prepared similar to the Arabidopsis SOC1 gene constructs and transiently expressed in Brachypodium protoplasts.

Test [2] has as its target T2, BdSOC1 (Brachypodium distachyon SUPPRESSOR OF OVEREXPRESSOR OF CONSTANS 1) transcription factor (Brachypodium distachyon, 35S-Met label in the pull-down assay (in vitro translated)).
T2 construct: Fused to an EYFP half in BiFC; In vitro translated and 35S-labeled in the pull-down; also called Bradi1g77020; Brachypodium SOC1
As to the kind of experiment: BiFC (split YFP fusions) in Brachypodium protoplasts. The method, then:
(a) in vitro pull-down assays. The BdSOC1 protein was prepared as recombinant BdSOC1-MBP fusion in E. coli cells. The ³⁵S-labeled BdSOC1 polypeptides were prepared by in vitro translation. Part of Coomassie-stained gel is shown (bottom panel). (b) BiFC assays. Partial YFP fusion constructs were transiently expressed in Brachypodium protoplasts. Scale bars=10 μm.
as §1

T1 sequence (O64645 whole entry, the tested form may be a part): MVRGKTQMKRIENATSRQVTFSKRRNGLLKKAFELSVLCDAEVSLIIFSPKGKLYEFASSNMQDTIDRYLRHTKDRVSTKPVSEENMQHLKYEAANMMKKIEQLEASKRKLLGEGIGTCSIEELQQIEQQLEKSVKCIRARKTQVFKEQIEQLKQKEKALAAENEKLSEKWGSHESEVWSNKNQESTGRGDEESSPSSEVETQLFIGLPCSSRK
T2 sequence (chain, as listed by the source limits assumed): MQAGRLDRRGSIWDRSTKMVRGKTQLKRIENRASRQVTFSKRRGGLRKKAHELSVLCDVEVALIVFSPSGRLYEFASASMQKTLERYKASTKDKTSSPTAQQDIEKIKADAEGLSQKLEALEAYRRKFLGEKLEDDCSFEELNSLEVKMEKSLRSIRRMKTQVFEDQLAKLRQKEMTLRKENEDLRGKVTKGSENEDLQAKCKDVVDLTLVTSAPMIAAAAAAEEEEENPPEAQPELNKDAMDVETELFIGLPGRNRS

B1: S-IK truncated SOC1 form (peptide)
chain: KKAFELSVLCDAEVSLIIFSPKGKLYEFASSNMQDTIDRYLRHTKDRVSTKPVSEENMQHLKYEAANMMKKIEQLEASKRKLLGEGIGTCSIEELQQIEQQLEKSVKCIRARKTQVFKEQIEQLKQKEKALAAENEKLSEK
modifications: 35S-Met label in the pull-down assay (in vitro translated)
notes: It was fused to GAL4 domain or EYFP half in yeast and BiFC assays; also called SOC1 a-siPEP
As to B1, the binding result in test [1] is recorded as “binds”.

B2: S-K truncated SOC1 form (peptide)
chain: VSEENMQHLKYEAANMMKKIEQLEASKRKLLGEGIGTCSIEELQQIEQQLEKSVKCIRARKTQVFKEQIEQLKQKEKALAAENEKLSEK
modifications: 35S-Met label in the pull-down assay (in vitro translated)
notes: It was fused to GAL4 domain or EYFP half in yeast and BiFC assays; also called S-K form; SOC1 a-siPEP
Take B2: the binding result in test [1] is “binds”.

B3: BdS-K truncated BdSOC1 form (peptide)
chain: TAQQDIEKIKADAEGLSQKLEALEAYRRKFLGEKLEDDCSFEELNSLEVKMEKSLRSIRRMKTQVFEDQLAKLRQKEMTLRKENEDLRGK
modifications: 35S-Met label in the pull-down assay (in vitro translated)
notes: An artificial start codon was added
Regarding B3, in test [2], the binding result is recorded as “binds”.

B4: BdS-IK truncated BdSOC1 form (peptide)
chain: KAHELSVLCDVEVALIVFSPSGRLYEFASASMQKTLERYKASTKDKTSSPTAQQDIEKIKADAEGLSQKLEALEAYRRKFLGEKLEDDCSFEELNSLEVKMEKSLRSIRRMKTQVFEDQLAKLRQKEMTLRKENEDLRGK
modifications: 35S-Met label in the pull-down assay (in vitro translated)
notes: An artificial start codon was added; also called BdS-MK2 (primer name)
Consider B4, for which the binding result in test [2] is reported as “binds”.
